{"source": "patent US20260008864A1", "key": {"[1]": {"molecular_target": "CD3 on cells (PBMC, primary patient samples)", "test": "flow cytometry on a primary patient sample, control panel: CD3-V450 staining is kept (reference for the bionic panel)"}, "[2]": {"molecular_target": "CD3 on cells (PBMC, primary patient samples)", "test": "flow cytometry, PBMC treated with C-IgG, dot plot CD38-PE against CD3-V450; reference panel for the treated samples; unstained panel: CD3 0%"}}, "data": [{"substance": "non-binding IgG antibody", "values": [{"measurement": "% CD3-V450 stained cells (control panel)", "setting": "[1]", "result": 25, "unit": "%"}, {"measurement": "CD3 (% of PBMC in the CD3-V450 positive, CD38-PE negative quadrant)", "setting": "[2]", "result": 25, "unit": "%"}]}]}
